Measured values as given in patent publication US20140087995A1 (published 2014).
Numbered stars: 1 amine (or outer) side, 2 acyl side, 3 side chain; on linkers, the order of the positions; unused ones are H or OH. Bridge positions count the residues as written; N and C are the ends. Side chains are listed from the residue outwards. Ends that are not written are not given here. * marks the point of attachment. C20 diacid = O=C(O)CCCCCCCCCCCCCCCCCCC(=O)*; γGlu = O=C(O)[C@H](CCC(=O)[*:2])N[*:1]; AEEA = NCCOCCOCC(=O)O

T1: human amylin 3(a) receptor (human calcitonin receptor co-expressed with RAMP-3) (human, UniProt P30988 25-474; O60896 24-148, limits assumed)
T1 sequence (looked up) 1: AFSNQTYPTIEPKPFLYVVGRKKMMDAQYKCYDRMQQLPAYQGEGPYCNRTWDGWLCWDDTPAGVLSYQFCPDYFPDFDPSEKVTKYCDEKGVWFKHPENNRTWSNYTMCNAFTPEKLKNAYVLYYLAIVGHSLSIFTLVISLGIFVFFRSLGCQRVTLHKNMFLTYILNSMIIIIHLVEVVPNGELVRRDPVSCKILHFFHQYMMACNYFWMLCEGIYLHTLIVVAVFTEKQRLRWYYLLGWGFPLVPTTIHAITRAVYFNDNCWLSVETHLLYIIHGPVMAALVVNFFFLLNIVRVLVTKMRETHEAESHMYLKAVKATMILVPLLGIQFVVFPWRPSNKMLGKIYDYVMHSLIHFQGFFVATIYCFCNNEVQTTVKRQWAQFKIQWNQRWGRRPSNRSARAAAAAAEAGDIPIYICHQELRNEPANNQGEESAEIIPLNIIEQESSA
T1 sequence (looked up) 2: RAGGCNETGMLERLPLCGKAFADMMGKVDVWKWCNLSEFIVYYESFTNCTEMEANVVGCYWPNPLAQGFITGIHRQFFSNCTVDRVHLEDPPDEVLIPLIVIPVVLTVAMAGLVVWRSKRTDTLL

T2: human calcitonin receptor (human, UniProt P30988 25-474)
T2 sequence (looked up): T1 sequence (looked up) 1

B1: N^α1-[(4S)-4-carboxy-4-[[(4S)-4-carboxy-4-(19-carboxynonadecanoylamino)butanoyl]amino]butanoyl]-[Glu14,Arg17,Pro21,Pro27]-h-amylin (peptide)
peptide: {C20 diacid-γGlu-γGlu}-KCNTATCATQRLAEFLRHSSPNFGAIPSSTNVGSNTY-NH2
modifications: disulfide 2-7
SMILES: CC[C@H](C)[C@H](NC(=O)[C@H](C)NC(=O)CNC(=O)[C@H](Cc1ccccc1)NC(=O)[C@H](CC(N)=O)NC(=O)[C@@H]1CCCN1C(=O)[C@H](CO)NC(=O)[C@H](CO)NC(=O)[C@H](Cc1c[nH]cn1)NC(=O)[C@H](CCCNC(=N)N)NC(=O)[C@H](CC(C)C)NC(=O)[C@H](Cc1ccccc1)NC(=O)[C@H](CCC(=O)O)NC(=O)[C@H](C)NC(=O)[C@H](CC(C)C)NC(=O)[C@H](CCCNC(=N)N)NC(=O)[C@H](CCC(N)=O)NC(=O)[C@@H](NC(=O)[C@H](C)NC(=O)[C@@H]1CSSC[C@H](NC(=O)[C@H](CCCCN)NC(=O)CC[C@H](NC(=O)CC[C@H](NC(=O)CCCCCCCCCCCCCCCCCCC(=O)O)C(=O)O)C(=O)O)C(=O)N[C@@H](CC(N)=O)C(=O)N[C@@H]([C@@H](C)O)C(=O)N[C@@H](C)C(=O)N[C@@H]([C@@H](C)O)C(=O)N1)[C@@H](C)O)C(=O)N1CCC[C@H]1C(=O)N[C@@H](CO)C(=O)N[C@@H](CO)C(=O)N[C@H](C(=O)N[C@@H](CC(N)=O)C(=O)N[C@H](C(=O)NCC(=O)N[C@@H](CO)C(=O)N[C@@H](CC(N)=O)C(=O)N[C@H](C(=O)N[C@@H](Cc1ccc(O)cc1)C(N)=O)[C@@H](C)O)C(C)C)[C@@H](C)O
notes: h-amylin derivative; disulfide bridge and C-terminal amide as told for human amylin; also called compound 15
B2: N^ε1-[2-[2-[2-[[(4S)-4-carboxy-4-(19-carboxynonadecanoylamino)butanoyl]amino]ethoxy]ethoxy]acetyl]-[Arg17,Pro21,Pro27,Pro31,His35]-h-amylin (peptide)
peptide: K([AEEA-γGlu-C20 diacid])CNTATCATQRLANFLRHSSPNFGAIPSSTPVGSHTY-NH2
modifications: disulfide 2-7; N-terminus assumed
SMILES: CC[C@H](C)[C@H](NC(=O)[C@H](C)NC(=O)CNC(=O)[C@H](Cc1ccccc1)NC(=O)[C@H](CC(N)=O)NC(=O)[C@@H]1CCCN1C(=O)[C@H](CO)NC(=O)[C@H](CO)NC(=O)[C@H](Cc1c[nH]cn1)NC(=O)[C@H](CCCNC(=N)N)NC(=O)[C@H](CC(C)C)NC(=O)[C@H](Cc1ccccc1)NC(=O)[C@H](CC(N)=O)NC(=O)[C@H](C)NC(=O)[C@H](CC(C)C)NC(=O)[C@H](CCCNC(=N)N)NC(=O)[C@H](CCC(N)=O)NC(=O)[C@@H](NC(=O)[C@H](C)NC(=O)[C@@H]1CSSC[C@H](NC(=O)[C@@H](N)CCCCNC(=O)COCCOCCNC(=O)CC[C@H](NC(=O)CCCCCCCCCCCCCCCCCCC(=O)O)C(=O)O)C(=O)N[C@@H](CC(N)=O)C(=O)N[C@@H]([C@@H](C)O)C(=O)N[C@@H](C)C(=O)N[C@@H]([C@@H](C)O)C(=O)N1)[C@@H](C)O)C(=O)N1CCC[C@H]1C(=O)N[C@@H](CO)C(=O)N[C@@H](CO)C(=O)N[C@H](C(=O)N1CCC[C@H]1C(=O)N[C@H](C(=O)NCC(=O)N[C@@H](CO)C(=O)N[C@@H](Cc1c[nH]cn1)C(=O)N[C@H](C(=O)N[C@@H](Cc1ccc(O)cc1)C(N)=O)[C@@H](C)O)C(C)C)[C@@H](C)O
notes: h-amylin derivative; disulfide bridge and C-terminal amide as told for human amylin; also called compound 57
B3: N^ε1-[2-[2-[2-[[(4S)-4-carboxy-4-(19-carboxynonadecanoylamino)butanoyl]amino]ethoxy]ethoxy]acetyl]-[Arg17,Pro21,Pro27,Pro29,Pro34]-h-amylin (peptide)
peptide: K([AEEA-γGlu-C20 diacid])CNTATCATQRLANFLRHSSPNFGAIPSPTNVGPNTY-NH2
modifications: disulfide 2-7; N-terminus assumed
SMILES: CC[C@H](C)[C@H](NC(=O)[C@H](C)NC(=O)CNC(=O)[C@H](Cc1ccccc1)NC(=O)[C@H](CC(N)=O)NC(=O)[C@@H]1CCCN1C(=O)[C@H](CO)NC(=O)[C@H](CO)NC(=O)[C@H](Cc1c[nH]cn1)NC(=O)[C@H](CCCNC(=N)N)NC(=O)[C@H](CC(C)C)NC(=O)[C@H](Cc1ccccc1)NC(=O)[C@H](CC(N)=O)NC(=O)[C@H](C)NC(=O)[C@H](CC(C)C)NC(=O)[C@H](CCCNC(=N)N)NC(=O)[C@H](CCC(N)=O)NC(=O)[C@@H](NC(=O)[C@H](C)NC(=O)[C@@H]1CSSC[C@H](NC(=O)[C@@H](N)CCCCNC(=O)COCCOCCNC(=O)CC[C@H](NC(=O)CCCCCCCCCCCCCCCCCCC(=O)O)C(=O)O)C(=O)N[C@@H](CC(N)=O)C(=O)N[C@@H]([C@@H](C)O)C(=O)N[C@@H](C)C(=O)N[C@@H]([C@@H](C)O)C(=O)N1)[C@@H](C)O)C(=O)N1CCC[C@H]1C(=O)N[C@@H](CO)C(=O)N1CCC[C@H]1C(=O)N[C@H](C(=O)N[C@@H](CC(N)=O)C(=O)N[C@H](C(=O)NCC(=O)N1CCC[C@H]1C(=O)N[C@@H](CC(N)=O)C(=O)N[C@H](C(=O)N[C@@H](Cc1ccc(O)cc1)C(N)=O)[C@@H](C)O)C(C)C)[C@@H](C)O
notes: h-amylin derivative; disulfide bridge and C-terminal amide as told for human amylin; also called compound 56
B4: N^ε1-[2-[2-[2-[[(4S)-4-carboxy-4-(19-carboxynonadecanoylamino)butanoyl]amino]ethoxy]ethoxy]acetyl]-[Arg17,Pro21,Pro27,Pro28,Pro31]-h-amylin (peptide)
peptide: K([AEEA-γGlu-C20 diacid])CNTATCATQRLANFLRHSSPNFGAIPPSTPVGSNTY-NH2
modifications: disulfide 2-7
notes: h-amylin derivative; disulfide bridge and C-terminal amide as told for human amylin; also called compound 53
B5: N^ε1-[2-[2-[2-[[(4S)-4-carboxy-4-(19-carboxynonadecanoylamino)butanoyl]amino]ethoxy]ethoxy]acetyl]-[Arg17,Pro21,Pro27,Pro28,Pro34]-h-amylin (peptide)
peptide: K([AEEA-γGlu-C20 diacid])CNTATCATQRLANFLRHSSPNFGAIPPSTNVGPNTY-NH2
modifications: disulfide 2-7; N-terminus assumed
SMILES: CC[C@H](C)[C@H](NC(=O)[C@H](C)NC(=O)CNC(=O)[C@H](Cc1ccccc1)NC(=O)[C@H](CC(N)=O)NC(=O)[C@@H]1CCCN1C(=O)[C@H](CO)NC(=O)[C@H](CO)NC(=O)[C@H](Cc1c[nH]cn1)NC(=O)[C@H](CCCNC(=N)N)NC(=O)[C@H](CC(C)C)NC(=O)[C@H](Cc1ccccc1)NC(=O)[C@H](CC(N)=O)NC(=O)[C@H](C)NC(=O)[C@H](CC(C)C)NC(=O)[C@H](CCCNC(=N)N)NC(=O)[C@H](CCC(N)=O)NC(=O)[C@@H](NC(=O)[C@H](C)NC(=O)[C@@H]1CSSC[C@H](NC(=O)[C@@H](N)CCCCNC(=O)COCCOCCNC(=O)CC[C@H](NC(=O)CCCCCCCCCCCCCCCCCCC(=O)O)C(=O)O)C(=O)N[C@@H](CC(N)=O)C(=O)N[C@@H]([C@@H](C)O)C(=O)N[C@@H](C)C(=O)N[C@@H]([C@@H](C)O)C(=O)N1)[C@@H](C)O)C(=O)N1CCC[C@H]1C(=O)N1CCC[C@H]1C(=O)N[C@@H](CO)C(=O)N[C@H](C(=O)N[C@@H](CC(N)=O)C(=O)N[C@H](C(=O)NCC(=O)N1CCC[C@H]1C(=O)N[C@@H](CC(N)=O)C(=O)N[C@H](C(=O)N[C@@H](Cc1ccc(O)cc1)C(N)=O)[C@@H](C)O)C(C)C)[C@@H](C)O
notes: h-amylin derivative; disulfide bridge and C-terminal amide as told for human amylin; also called compound 55
B6: N^ε1-[2-[2-[2-[[(4S)-4-carboxy-4-(19-carboxynonadecanoylamino)butanoyl]amino]ethoxy]ethoxy]acetyl]-[Arg17,Pro21,Pro27,Pro29,Pro31]-h-amylin (peptide)
peptide: K([AEEA-γGlu-C20 diacid])CNTATCATQRLANFLRHSSPNFGAIPSPTPVGSNTY-NH2
modifications: disulfide 2-7; N-terminus assumed
SMILES: CC[C@H](C)[C@H](NC(=O)[C@H](C)NC(=O)CNC(=O)[C@H](Cc1ccccc1)NC(=O)[C@H](CC(N)=O)NC(=O)[C@@H]1CCCN1C(=O)[C@H](CO)NC(=O)[C@H](CO)NC(=O)[C@H](Cc1c[nH]cn1)NC(=O)[C@H](CCCNC(=N)N)NC(=O)[C@H](CC(C)C)NC(=O)[C@H](Cc1ccccc1)NC(=O)[C@H](CC(N)=O)NC(=O)[C@H](C)NC(=O)[C@H](CC(C)C)NC(=O)[C@H](CCCNC(=N)N)NC(=O)[C@H](CCC(N)=O)NC(=O)[C@@H](NC(=O)[C@H](C)NC(=O)[C@@H]1CSSC[C@H](NC(=O)[C@@H](N)CCCCNC(=O)COCCOCCNC(=O)CC[C@H](NC(=O)CCCCCCCCCCCCCCCCCCC(=O)O)C(=O)O)C(=O)N[C@@H](CC(N)=O)C(=O)N[C@@H]([C@@H](C)O)C(=O)N[C@@H](C)C(=O)N[C@@H]([C@@H](C)O)C(=O)N1)[C@@H](C)O)C(=O)N1CCC[C@H]1C(=O)N[C@@H](CO)C(=O)N1CCC[C@H]1C(=O)N[C@H](C(=O)N1CCC[C@H]1C(=O)N[C@H](C(=O)NCC(=O)N[C@@H](CO)C(=O)N[C@@H](CC(N)=O)C(=O)N[C@H](C(=O)N[C@@H](Cc1ccc(O)cc1)C(N)=O)[C@@H](C)O)C(C)C)[C@@H](C)O
notes: h-amylin derivative; disulfide bridge and C-terminal amide as told for human amylin; also called compound 54
B7: N^ε1-[2-[2-[2-[[(4S)-4-carboxy-4-(19-carboxynonadecanoylamino)butanoyl]amino]ethoxy]ethoxy]acetyl]-[Arg17,Pro21,Pro27,Pro34,His35]-h-amylin (peptide)
peptide: K([AEEA-γGlu-C20 diacid])CNTATCATQRLANFLRHSSPNFGAIPSSTNVGPHTY-NH2
modifications: disulfide 2-7; N-terminus assumed
SMILES: CC[C@H](C)[C@H](NC(=O)[C@H](C)NC(=O)CNC(=O)[C@H](Cc1ccccc1)NC(=O)[C@H](CC(N)=O)NC(=O)[C@@H]1CCCN1C(=O)[C@H](CO)NC(=O)[C@H](CO)NC(=O)[C@H](Cc1c[nH]cn1)NC(=O)[C@H](CCCNC(=N)N)NC(=O)[C@H](CC(C)C)NC(=O)[C@H](Cc1ccccc1)NC(=O)[C@H](CC(N)=O)NC(=O)[C@H](C)NC(=O)[C@H](CC(C)C)NC(=O)[C@H](CCCNC(=N)N)NC(=O)[C@H](CCC(N)=O)NC(=O)[C@@H](NC(=O)[C@H](C)NC(=O)[C@@H]1CSSC[C@H](NC(=O)[C@@H](N)CCCCNC(=O)COCCOCCNC(=O)CC[C@H](NC(=O)CCCCCCCCCCCCCCCCCCC(=O)O)C(=O)O)C(=O)N[C@@H](CC(N)=O)C(=O)N[C@@H]([C@@H](C)O)C(=O)N[C@@H](C)C(=O)N[C@@H]([C@@H](C)O)C(=O)N1)[C@@H](C)O)C(=O)N1CCC[C@H]1C(=O)N[C@@H](CO)C(=O)N[C@@H](CO)C(=O)N[C@H](C(=O)N[C@@H](CC(N)=O)C(=O)N[C@H](C(=O)NCC(=O)N1CCC[C@H]1C(=O)N[C@@H](Cc1c[nH]cn1)C(=O)N[C@H](C(=O)N[C@@H](Cc1ccc(O)cc1)C(N)=O)[C@@H](C)O)C(C)C)[C@@H](C)O
notes: h-amylin derivative; disulfide bridge and C-terminal amide as told for human amylin; also called compound 58

These binders were tested against T1, human amylin 3(a) receptor (human …) (assay: cell-based or functional assay).

Ratio hCT/hAmylin funct. | hAmylin-R funct. EC50 | Binder
8.9 | – | B1
– | 0.089 nM | B2
5 | 0.102 nM | B3
9.8 | – | B4
– | 0.068 nM | B5
9.6 | – | B6
– | 0.047 nM | B7

What follows are binders tested against T2, human calcitonin receptor (assay: cell-based or functional assay).

hCTR funct. EC50 | Binder
3.43 nM | B1
3.12 nM | B2
0.506 nM | B3
0.625 nM | B4
0.731 nM | B5
0.987 nM | B6
1.03 nM | B7
